# In US20180369326A1 (LA JOLLA INSTITUTE FOR ALLERGY AND IMMUNOLOGY, published 2018):
# Residue numbers refer to the chain shown, from its start.
# T1: WT ICOS (wild-type inducible T-cell costimulator, transfected into Jurkat JTAg T cells) (Homo sapiens (Human), UniProt Q9Y6W8 21-199)
# T1 sequence: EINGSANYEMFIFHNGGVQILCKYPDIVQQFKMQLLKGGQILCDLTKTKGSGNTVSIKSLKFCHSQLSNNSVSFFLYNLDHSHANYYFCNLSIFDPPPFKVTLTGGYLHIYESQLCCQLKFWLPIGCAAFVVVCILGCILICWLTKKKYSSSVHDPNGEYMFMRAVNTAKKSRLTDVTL
# B1: TANK-binding kinase 1 (TBK1), endogenous, human cell lines (Jurkat JTAg, HEK293T) (enzyme, UniProt Q9UHD2 1-729, looked up)
# chain: MQSTSNHLWLLSDILGQGATANVFRGRHKKTGDLFAIKVFNNISFLRPVDVQMREFEVLKKLNHKNIVKLFAIEEETTTRHKVLIMEFCPCGSLYTVLEEPSNAYGLPESEFLIVLRDVVGGMNHLRENGIVHRDIKPGNIMRVIGEDGQSVYKLTDFGAARELEDDEQFVSLYGTEEYLHPDMYERAVLRKDHQKKYGATVDLWSIGVTFYHAATGSLPFRPFEGPRRNKEVMYKIITGKPSGAISGVQKAENGPIDWSGDMPVSCSLSRGLQVLLTPVLANILEADQEKCWGFDQFFAETSDILHRMVIHVFSLQQMTAHKIYIHSYNTATIFHELVYKQTKIISSNQELIYEGRRLVLEPGRLAQHFPKTTEENPIFVVSREPLNTIGLIYEKISLPKVHPRYDLDGDASMAKAITGVVCYACRIASTLLLYQELMRKGIRWLIELIKDDYNETVHKKTEVVITLDFCIRNIEKTVKVYEKLMKINLEAAELGEISDIHTKLLRLSSSQGTIETSLQDIDSRLSPGGSLADAWAHQEGTHPKDRNVEKLQVLLNCMTEIYYQFKKDKAERRLAYNEEQIHKFDKQKLYYHATKAMTHFTDECVKKYEAFLNKSEEWIRKMLHLRKQLLSLTNQCFDIEEEVSKYQEYTNELQETLPQKMFTASSGIKHTMTPIYPSSNTLVEMTLGMKKLKEEMEGVVKELAENNHILERFGSLTMDGGLRNVDCL
# notes: Species follows from the human cell lines; also called endogenous TBK1
# B2: ICOS with alanine-substituted IProx motif (170…179 to 170AAAAAAAAAA179) (receptor)
# chain: T1 sequence with S150A, S151A, S152A, V153A, H154A, D155A, P156A, N157A, G158A, E159A
# notes: Expressed from a plasmid in Jurkat JTAg cells; also called mIProx; IProx mutant
# B3: FLAG-tagged WT TRAF3 (other)
# chain: MESSKKMDSPGALQTNPPLKLHTDRSAGTPVFVPEQGGYKEKFVKTVEDKYKCEKCHLVLCSPKQTECGHRFCESCMAALLSSSSPKCTACQESIVKDKVFKDNCCKREILALQIYCRNESRGCAEQLMLGHLLVHLKNDCHFEELPCVRPDCKEKVLRKDLRDHVEKACKYREATCSHCKSQVPMIALQKHEDTDCPCVVVSCPHKCSVQTLLRSELSAHLSECVNAPSTCSFKRYGCVFQGTNQQIKAHEASSAVQHVNLLKEWSNSLEKKVSLLQNESVEKNKSIQSLHNQICSFEIEIERQKEMLRNNESKILHLQRVIDSQAEKLKELDKEIRPFRQNWEEADSMKSSVESLQNRVTELESVDKSAGQVARNTGLLESQLSRHDQMLSVHDIRLADMDLRFQVLETASYNGVLIWKIRDYKRRKQEAVMGKTLSLYSQPFYTGYFGYKMCARVYLNGDGMGKGTHLSLFFVIMRGEYDALLPWPFKQKVTLMLMDQGSSRRHLGDAFKPDPNSSSFKKPTGEMNIASGCPVFVAQTVLENGTYIKDDTIFIKVIVDTSDLPDP
# notes: Expressed in HEK293T cells; The position of the FLAG tag is unknown; not shown: FLAG tag
# How the values were obtained:
# [1] = target: WT ICOS (wild-type inducible T-cell costimulator, transfected into Jurkat JTAg T cells) (Homo sapiens (Human)) (UniProt Q9Y6W8); assay: SILAC mass spectrometry of anti-ICOS IPs from Jurkat cells expressing WT ICOS or mIProx, stimulated with anti-CD3 plus anti-ICOS
# [2] = target: T1, WT ICOS (wild-type inducible T-cell …); assay: as above
# Description: FACS-sorted GFP⁺ transduced cells were stimulated with α-CD3 plus α-ICOS mAbs for 2 minutes. 300 μg of the protein mixture derived from WT and mutant cell lysate were mixed at a 1:1 ratio, and immunoprecipitated with anti-ICOS mAb. Immunoprecipitants were subjected to an on-bead digestion protocol. The proteins were reduced with 100 mM Tris-HCl/8 M urea/5 mM tris(2-carboxyethyl)phosphine, and alkylated with 10 mM iodoacetamide. The solution was diluted 1:4 and digested with 1 μg of trypsin at 37° C. overnight. […] MS analysis was performed using an LTQ-Orbitrap Velos mass spectrometer (Thermo Fisher). […] The experiments were biologically repeated in four replicates, including medium isotope type swapping (heavy or light) between WT and mutant cells.
# [3] = target: T2, p85α, the regulatory subunit of PI3K, endogenous, Jurkat cells (human, UniProt P27986 2-724); assay: co-IP (anti-ICOS IP, immunoblot), transfected Jurkat cells stimulated with anti-CD3 plus anti-ICOS (FIG. 2b, 2c)
# T2 construct: Species follows from the human cell line; also called p85a
# From the text: IPs or whole cell lysates (WCL) were immunoblotted with the indicated Abs. 5% WCL was used as input to control for IP Western. […] Jurkat T cells transfected with WT ICOS, mIProx, YF or tailless (TL) ICOS plasmids were stimulated with anti-CD3 plus −ICOS mAbs prior to IP and immunoblotting. […] In vitro activated primary mouse CD4⁺ T cells were stimulated with anti-CD3 plus the indicated costimulatory mAbs, and IP or WCL were subjected to immunoblotting with the indicated Abs. Shown are representative of three experiments.
# (§1) The human leukemic Jurkat T cell line, JTAg, was previously described (Li, J et al. J Immunol 2013, 191(1): 200-207; Rolf J et al., J Immunol 2010, 185(7): 4042-4052) and the HEK 293T cell line was obtained from ATCC. These cell lines have not been recently STR profiled but tested negative for mycoplasma contamination. JTAg cells in logarithmic growth phase were transfected with plasmid DNAs by electroporation and incubated for 24 hours.
# [4] = target: B1; assay: anti-FLAG IP and immunoblot, transfected HEK293T cells (FIG. 6e)
# Description: Shown are representative of three experiments.
# as §1
# T2 sequence (P27986 2-724): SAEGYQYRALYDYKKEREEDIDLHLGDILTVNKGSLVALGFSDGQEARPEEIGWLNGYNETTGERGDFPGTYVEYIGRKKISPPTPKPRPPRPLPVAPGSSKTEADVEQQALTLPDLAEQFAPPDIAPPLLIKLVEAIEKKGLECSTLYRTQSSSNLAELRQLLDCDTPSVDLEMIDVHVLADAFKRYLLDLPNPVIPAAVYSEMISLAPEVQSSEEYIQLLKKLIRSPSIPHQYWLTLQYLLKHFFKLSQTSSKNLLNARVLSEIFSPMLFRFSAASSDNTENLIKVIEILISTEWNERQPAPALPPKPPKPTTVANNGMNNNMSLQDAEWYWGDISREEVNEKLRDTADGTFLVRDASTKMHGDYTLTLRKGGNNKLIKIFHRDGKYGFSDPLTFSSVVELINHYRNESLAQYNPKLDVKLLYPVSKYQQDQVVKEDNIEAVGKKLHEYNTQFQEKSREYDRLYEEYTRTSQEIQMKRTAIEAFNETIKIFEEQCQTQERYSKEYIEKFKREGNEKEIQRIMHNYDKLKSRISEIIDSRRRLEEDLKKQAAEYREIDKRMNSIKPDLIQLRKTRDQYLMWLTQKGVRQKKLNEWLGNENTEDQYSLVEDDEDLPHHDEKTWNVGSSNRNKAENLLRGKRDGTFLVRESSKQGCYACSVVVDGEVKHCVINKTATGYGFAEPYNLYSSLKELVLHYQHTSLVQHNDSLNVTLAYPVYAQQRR
"Fold Change (differential binding ratio, WT ICOS IP vs mIProx ICOS IP) [1] [fold]",Molecule,other results
2.95,"NAA10 (acetyltransferase), endogenous, Jurkat cells (from UniProt P41227 1-235) (enzyme)",
3.13,"BAG6 (chaperone), endogenous, Jurkat cells (from UniProt P46379 1-1132)",
1.81,"Erlin2 (ER protein), endogenous, Jurkat cells (from UniProt O94905 1-339)",
2.08,"SLP76 (TCR signaling), endogenous, Jurkat cells (from UniProt Q13094 1-533)",
5.26,"MYCBP2 (E3 ligase), endogenous, Jurkat cells (from UniProt O75592 1-4678) (enzyme)",
2.17,"GAK (cell cycle kinase), endogenous, Jurkat cells (from UniProt O14976 2-1311) (enzyme)",
,B1,"Fold Change (differential binding ratio, WT ICOS IP vs mIProx ICOS IP) [2]: 7.69 fold"
,B2,binding result [3]: binds
,B3,binding result [4]: binds
